# US10865391B2, “Glutamate dehydrogenase mutants and their application in preparation of L-phosphinothricin” (ZHEJIANG UNIVERSITY, priority 2018, dated 2020)
# Changes are numbered by the printed parent chain. Numbers in names are those of the source.
# B1: CgGluDH-V376A: CgGluDH mutant V376A, SEQ ID NO. 4 (protein)
# chain: MTVDEQVSNYYDMLLKRNAGEPEFHQAVAEVLESLKIVLEKDPHYADYGLIQRLCEPERQLIFRVPWVDDQGQVHVNRGFRVQFNSALGPYKGGLRFHPSVNLGIVKFLGFEQIFKNSLTGLPIGGGKGGSDFDPKGKSDLEIMRFCQSFMTELHRHIGEYRDVPAGDIGVGGREIGYLFGHYRRMANQHESGVLTGKGLTWGGSLVRTEATGYGCVYFVSEMIKAKGESISGQKIIVSGSGNVATYAIEKAQELGATVIGFSDSSGWVHTPNGVDVAKLREIKEVRRARVSVYADEVEGATYHTDGSIWDLKCDIALPCATQNELNGENAKTLADNGCRFVAEGANMPSTPEAVEVFRERDIRFGPGKAANAGGAATSALEMQQNASRDSWSFEYTDERLQVIMKNIFKTCAETAAEYGHENDYVVGANIAGFKKVADAMLAQGVI
# modifications: Corynebacterium glutamicum glutamate dehydrogenase mutant
# B2: CgGluDH-A166G: CgGluDH mutant A166G, SEQ ID NO. 3 (protein)
# chain: B1 chain with A166G, A376V
# modifications: Corynebacterium glutamicum glutamate dehydrogenase mutant
# B3: PeGluDH-V375A: PeGluDH mutant V375A, SEQ ID NO. 6 (protein)
# chain: MIESVDHFLARLQQRDPAQPEFHQAVEEVLRSLWPFLEQNPHYLEAGILERMVEPERAVLFRVSWVDDQGKVQVNRGYRIQMSSAIGPYKGGLRFHPSVNLGVLKFLAFEQVFKNSLTSLPMGGGKGGSDFDPKGKSDAEVMRFCQAFMSELYRHIGADLDVPAGDIGVGAREIGFLFGQYKRLANQFTSVLTGKGMTYGGSLIRPEATGYGCVYFAEEMLKRQEQRIDGRRVAISGSGNVAQYAARKVMDLGGKVISLSDSEGTLFCEAGLTDEQWDALMELKNVKRGRISELAGRFGLEFRKGQTPWSLACDIALPCATQNELNADDARTLLRNGCICVAEGANMPTTLDAVDIFIEAGILYAPGKASNAGGAAVSGLEMSQNAMRLLWTAGEVDSKLHHIMQSIHHVCVHYGEEADGRINYVKGANIAGFVKVADAMLAQGVV
# modifications: Pseudomonas entomophila glutamate dehydrogenase mutant
# B4: LsGluDHp-V386A: LsGluDHp mutant V386A, SEQ ID NO. 8 (protein)
# chain: MTITTVSNEQLAKEYVDGVFEQLKQQNCHQAEFLQAAEEIFISLVPVFVQHPEYIKANILSRIVEPDRIISFRVAWQDDHNQVQVNRGYRVQYSNVMGPYKGGLRFHPSVNESIIKFLGFEQIFKNALTGQPIGGGKGGSNFDPKGKSDSEIMRFCQAFMTELYRHIGPDVDVPAGDIGVGAREVGYLWGQYKRLTKASESGVLTGKTPGYGGSLARKEATGYGTVYFVNEMLKDVNDSFEGKTVVVSGSGNVSTYAIEKAQQYGAKVVACSDSSGYIYDPEGLDLDVIKEIKEVKGDRISTYVSYRPNATFTNGCTGIWTIPCDIALPCATQNEINGESARTLISNGVKAIGEGANMPSDLEAINEFLNAGVLFGPAKAANAGGAAVSALEMAQDSSRVFWSFEEVDAKLHQIMKDIYSDSKAAAEKYGFPGNLVMGANIAGFIKVADGMLTEGIY
# modifications: Lysinibacillus sphaericus glutamate dehydrogenase mutant
# B5: CgGluDH: wild type glutamate dehydrogenase from Corynebacterium glutamicum, NP_601279.1, NADPH-specific (protein, UniProt P31026 1-447, looked up)
# NADP-specific glutamate …: B1 chain with A376V
# B6: BsGluDH-A154G: BsGluDH mutant A154G, SEQ ID NO. 11 (protein)
# chain: MSAKQVSKDEEKEALNLFLSTQTIIKEALRKLGYPGDMYELMKEPQRMLTVRIPVKMDNGSVKVFTGYRSQHNDAVGPTKGGVRFHPEVNEEEVKALSIWMTLKCGIANLPYGGGKGGIICDPRTMSFGELERLSRGYVRAISQIVGPTKDIPGPDVYTNSQIMAWMMDEYSRLREFDSPGFITGKPLVLGGSQGRETATAQGVTICIEEAVKKKGIKLQNARIIIQGFGNAGSFLAKFMHDAGAKVIGISDANGGLYNPDGLDIPYLLDKRDSFGMVTNLFTDVITNEELLEKDCDILVPAAISNQITAKNAHNIQASIVVEAANGPTTIDATKILNERGVLLVPDILASAGGVTVSYFEWVQNNQGYYWSEEEVAEKLRSVMVSSFETIYQTAATHKVDMRLAAYMTGIRKSAEASRFRGWV
# modifications: Bacillus subtilis glutamate dehydrogenase mutant
# B7: LsGluDH-A144G: LsGluDH mutant A144G, SEQ ID NO. 15 (protein)
# chain: MSENLNLFTSTQDVIQDALNKLGYDEAMYELLKEPLRMLQVRIPVKMDDGTTKVFTGYRAQHNDAVGPTKGGVRFHPQVSEEEVKALSMWMTLKCGIVDLPYGGGKGGVICDPRQMSMGEIERLSRGYVRAVSQIVGPTKDIPGPDVFTNAQIMAWMMDEYSRMDEFNSPGFITGKPLVLGGSQGRDRATAQGVTIVIEEAAKKRGIDIKGARVVIQGFGNAGSFLAKFMHDLGAKVIGISDAYGALHDPEGLDIDYLLDRRDSFGTVTTLFENTISNKELLELDCDILVPAAIENQITADNAHNIKADIVVEAANGPTTAEATKILTERGILLVPDVLASAGGVTVSYFEWVQNNQGYYWTEEEVEERLYKKMVEAFDNVYTTATTRNINMRLAAYMVGVRRTAEASRFRGWV
# modifications: Lysinibacillus sphaericus glutamate dehydrogenase mutant
# B8: BmGluDH-A156G: BmGluDH mutant A156G, SEQ ID NO. 13 (protein)
# chain: MVADKMQDSKNSQEEKHDVLKSTQTVIHKALEKLGYPDEVYELLKEPLRMMTVKIPVRMDDGSVKIFTGHRAQHNDAVGPTKGGIRFHPNVTEKEVKALSIWMSLKCGIVDLPYGGGKGGIVCDPRNMSFGELERLSRGYVRAISQIVGPTKDIPGPDVFTNSQIMAWMMDEYSRIDEFNSPGFITGKPLVLGGSHGRETATAKGVTICIREAAKKRGIELQGARVVVQGFGNAGSFLAKFMHDAGAKIVGISDAYGALHDPNGLDIDYLLDRRDSFGTVTKLFNNTISNKELLELDCDILVPAAIENQITEENAHNIQASIVVEAANGPTTLEATRILSERGILLVPDVLASAGGVTVSYFEWVQNNQGYYWTEEEVEEKLEKVMVKSFNNIYETSTTRKVDMRLAAYMIGVRKMAEGSRFRGWI
# modifications: Bacillus megaterium glutamate dehydrogenase mutant
# B9: GsGluDH-A153G: GsGluDH mutant A153G, SEQ ID NO. 9 (protein)
# chain: MAADKHTEEKGQQDDVLASTQIVIHRALEKLGYPEEVYELLKEPIRVLTVRIPVRMDDGSVKIFTGYRAQHNDAVGPTKGGVRFHPDVTEREVKALSIWMSLKCGIVDLPYGGGKGGIVCDPRTMSFRELERLSRGYVRAISQIVGPTKDIPGPDVFTNSQIMAWMMDEYSRIREFDSPGFITGKPLVLGGSHGRETATAKGVTICIREAAKKRGLSLEGARVVVQGFGNAGSYLAKFLHDAGAKVVGISDVYGALYDPNGLDIDYLLERRDSFGTVTKLFKNTISNKELLELDCDILVPAAIENQITAENAPRIKASIVVEAANGPTTLEATEILTQRGILLVPDVLASAGGVTVSYFEWVQNNQGYYWTEEEVEQRLEKVMVKAFNNVYEMAQTRRVDMRLAAYMVGVRKMAEACRFRGWV
# modifications: Geobacillus stearothermophilus glutamate dehydrogenase mutant
# Assay: Standard enzyme activity measurement toward PPO, crude enzyme (per volume fermentation broth)
# Type: biochemical
# Details: enzyme activity of mutant versus wild type, toward PPO
# Method: The preserved recombinant E. coli is streaked onto the plate for activation. Single colonies are picked and inoculated into 5 mL LB liquid medium containing 50 μg/mL kanamycin and cultured at 37° C. for 12 h. The culture is transferred to 50 mL fresh LB liquid medium containing 50 μg/mL kanamycin at a 2% inoculum, and then incubated at 37° C. until the OD600 reaches 0.6; after that, add IPTG to a final concentration of 0.5 mM, and then proceed with induction culture under the temperature of 18° C. for 16 h.
# After the cultivation, the culture is centrifuged at 10000 rpm for 10 min; discard supernatant, and collect cells. The harvested cells are washed for 2 times using pH 7.5 50 mM phosphate buffer. After that, the cells are re-suspend into the pH 7.5 phosphate buffer and disrupted ultrasonically (400W for 30 times, Ultrasonic time is 3 s, and the interval is 7 s). The cell disrupted solution is centrifuged at 12000 g for 5 min at 4° C. to remove the precipitate, and the supernatant obtained is the crude enzyme containing recombinant glutamate dehydrogenase
# The standard enzyme activity measurement system: Appropriate amount of enzyme, 100 mM substrate, 10 mM coenzyme (NADH or NADPH), 500 mM NH4^+ ((NH4)2SO4); total system volume is up to 400 μL; reaction medium is pH 7.5 phosphate buffer. 35° C. reaction for 10 min; after that, add 40 uL 5 M NaOH to terminate reaction.
# Definition of enzyme activity unit: The quantity of enzyme as required by generation of 1 μmol L-phosphinothricin per minute under standard reaction conditions.
# Proceed with induction culture of constructed mutants, and prepare crude enzyme solution.
row,Molecule,Fold change
1,B1,225
2,B2,31
3,B3,107
4,B4,588

# Same assay, conditions: toward PPO; crude enzyme, standard system; N.D. = no detectable activity
Molecule,Enzyme activity of wild type (U/mL),Enzyme activity of mutants (U/mL)
B5,0.011,
B1,,2.48
B2,,0.34
B6,,0.50
B3,,11.06
B4,,12.34
B7,,1.69
B8,,0.34
B9,,0.04
